Substitutions are numbered along the chain they refer to. Starred links: 1 amine or outer side, 2 acyl side, 3 side chain; linkers in the order of their positions; H or OH if unused. Positions of bridges follow the written chain, without caps; N, C: chain ends. Non-standard residues stand in square brackets, D forms with d. Residues, ends and D or L forms follow the SMILES beside them. *: point of attachment. Leu(3R-OH,Nα-propionyl) = CCC(=O)N[C@H](C(=O)*)[C@H](O)C(C)C; X1 = CC(C)[C@@H](O[*:3])[C@H](N[*:1])C(=O)[*:2]; NMeT = CN[C@H](C(=O)O)[C@@H](C)O; dPhLac = O=C(O)[C@H](O)Cc1ccccc1; NMeA = CN[C@@H](C)C(=O)O; NMeDha = C=C(NC)C(=O)O
B1: Y010900: anti-PMEL17 antibody (IgG) (antibody, V domains shown)
VH: EVQLVESGGGLVKPGGSLRLSCAASGFTFSNAWMSWVRQAPGKGLEWVGRIKSKTDAGTTDYAAPVKGRFTISRDDSKNTLYLQMNSLKTEDTAVYYCARTIYPSAPSSSLDYWGQGTLVTVSS
VL: DIQMTQSPSSLSASVGDRVTITCRASQGISNYLAWYQQKPGKVPKLLIYAASTLQSGVPSRFSGSGSGTDFTLTISSLQPEDVATYYCQQLIFFPLTFGQGTKVEIK
B2: Y010356: anti-PMEL17 antibody (IgG) (antibody, V domains shown)
VH: EVQLVESGGGLVKPGGSLRLSCAASGFTFSNYWISWVRQAPGKGLEWVGRIKSKTYGGTTDYAEPVKGRFTISRDDSKNTLYLQMNSLKTEDTAVYYCARVSGYYSHSGGFDVWGQGTLVTVSS
VL: B1 VL with Q90K, L91T, I92W, F93R, F94T, L96G
B3: Y010910: anti-PMEL17 antibody (IgG) (antibody, V domains shown)
VH: EVQLVESGGGLVKPGGSLRLSCAASGFTFSNAWMSWVRQAPGKGLEWVGRIKSKTDAGTTDYAAPVKGRFTISRDDSKNTLYLQMNSLKTEDTAVYYCARVASPSAPGGFDYWGQGTLVTVSS
VL: B1 VL with L91S, I92L, F94A, L96F
B4: Y010906: anti-PMEL17 antibody (IgG) (antibody, V domains shown)
VH: EVQLVESGGGLVKPGGSLRLSCAASGFTFSNAWMSWVRQAPGKGLEWVGRIKSKTDAGTTDYAAPVKGRFTISRDDSKNTLYLQMNSLKTEDTAVYYCARDEYPWGWFDVWGQGTLVTVSS
VL: B1 VL with L11V, N31S, Y32W, V43A, T53S, V83F, L91Y, F94Y
B5: MOR024354: anti-PMEL17 antibody (IgG) (antibody, V domains shown)
VH: QVQLLESGGGLVQPGGSLRLSCAASGFTFSSFGMSWVRQAPGKGLEWVSAISYSGSDTYYADSVKGRFTISRDNSKNTLYLQMNSLRAEDTAVYYCARDVGVMDYWGQGTLVTVSS
VL: SYELTQPLSVSVALGQTARITCSGDNLGTYYAHWYQQKPGQAPVLVIYSQSHRPSGIPERFSGSNSGNTATLTISRAQAGDEADYYCGAWDAPSPELVFGGGTKLTVL
B6: Y010355: anti-PMEL17 antibody (IgG) (antibody, V domains shown)
VH: EVQLVESGGGLVKPGGSLRLSCAASGFTFSNYWISWVRQAPGKGLEWVGRIKSKTYGGTTDYAEPVKGRFTISRDDSKNTLYLQMNSLKTEDTAVYYCARTSRRSYAFDYWGQGTLVTVSS
VL: DIQMTQSPSTLSASVGDRVTITCRASQSISSWLAWYQQKPGKAPKLLIYDASSLESGVPSRFSGSGSGTEFTLTISSLQPEDFATYYCQQITRYPVTFGQGTKVEIK
B7: Y010903: anti-PMEL17 antibody (IgG) (antibody, V domains shown)
VH: EVQLVESGGGLVKPGGSLRLSCAASGFTFSNAWMSWVRQAPGKGLEWVGRIKSKTDAGTTDYAAPVKGRFTISRDDSKNTLYLQMNSLKTEDTAVYYCARASHRLHSLFDVWGQGTLVTVSS
VL: B6 VL with I91G, T92L, R93F, V96H

What follows are molecules tested on UACC-62 (assay: FACS titration of IgGs on UACC-62 cells). Conditions: UACC-62, PE-labelled detection antibody.
Format: binding
Method: (§1) Purified IgGs were titrated on a variety of PMEL17 expressing and PMEL17 non expressing cell lines (for control) to determine EC50 values. Cells were harvested using Accutase, adjusted to ˜4×10^6 cells/ml into FACS buffer (PBS, 3% FCS and 0.02% Na-Azide) and kept on ice to avoid internalization. 15 μl of cell suspension/well were transferred into 384 well V-bottom plates (Greiner, Cat #781280) and incubated with 15 μl of IgGs at different concentrations (most commonly from 200 to 3.5×10−3 nM) for 1 hour at 4° C., gently shaking. Following incubation, cells were washed three times with FACS buffer. After each washing step, cells were centrifuged (250×g, 5 min, 4° C.) and carefully resuspended. 15 μl of detection antibody conjugated to PE (PE-conjugated goat anti-human IgG, F(ab′)2 fragment specific, 1:150 in FACS buffer; Jackson Immuno Research, #109-116-097) or Alexa Fluor (Alexa Fluor-conjugated goat anti-human IgG, F(ab′)2 fragment specific, 1:150 in FACS buffer; Jackson Immuno Research, #109-606-097) were added and samples were incubated for 45 minutes to 1 hour on ice in the dark, gently shaking. After 3 washing steps, cells were resuspended in 30 μl of FACS buffer and samples were measured using the IntelliCyt HTFC device. EC50 values were calculated using the Graphpad Prism software. G-361 melanoma cell line expresses human PMEL17 at a lower level compared to the HKB11-human PMEL17 overexpressing cell line, and therefore allows a more precise ranking of the clones depending on their apparent affinity on cells.

Molecule	UACC-62 (PE)
B1	Negative
B2	Negative
B3	Negative
B4	Negative
B5	Negative
B6	Negative
B7	Negative

Each molecule was assayed on 92.1 uveal melanoma (assay: Resazurin-based viability assay, 92.1 uveal melanoma cells). Conditions: 92.1 GNAQ^Q209L; Table 1; read-out: GI50 (nM) 92.1GNAQ^Q209L.
Format: cell-based
Method: (§2) Following drug treatment for 96 or 120 hours, cell viability and proliferation were determined using a resazurin-based viability assay. Briefly, cells were incubated with a resazurin-based solution and color change was detected by absorbance with a spectrophotometer and used as a readout of cell viability. Data presented as mean of 3 independent replicates and relative to PBS-treated cells (control).
Following drug treatment for 96 or 120 hours, cell viability and proliferation were determined using a resazurin-based viability assay. Briefly, cells were incubated with a resazurin-based solution and color change was detected by absorbance with a spectrophotometer and used as a readout of cell viability. Data presented as mean of 3 independent replicates and relative to PBS-treated cells (control) (FIG. 6).
Following drug treatment for 96 or 120 hours, cell viability and proliferation were determined using a resazurin-based viability assay. Data presented as mean of 3 independent replicates and relative to PBS-treated cells (control) (FIG. 8).
as §2

Molecule	GI50 [nM]
C=C1C(=O)N[C@@H](C)C(=O)N(C)[C@@H](C)C(=O)N[C@@H]([C@H](OC(=O)[C@@H](NC(=O)CC)[C@H](O)C(C)C)C(C)C)C(=O)N(C)[C@@H]([C@@H](C)OC)C(=O)O[C@H](C)[C@H](NC(C)=O)C(=O)O[C@H](Cc2ccccc2)C(=O)N1C [Compound (A3), (R)-1-((3S,6S,9S,12S,18R,21S,22R)-21-acetamido-18-benzyl-3-((R)-1-methoxyethyl)-4,9,10,12,16,22-hexamethyl-15-methylene-2,5,8,11,14,17,20-heptaoxo-1,19-dioxa-4,7,10,13,16-pentaazacyclodocosan-6-yl)-2-methylpropyl (2S,3R)-3-hydroxy-4-methyl-2-propionamidopentanoate] (Ac-T[dPhLac][NMeDha]A[NMeA][X1](Leu(3R-OH,Nα-propionyl))[NMeT](Me); ester 1-C)	9.3

What follows are molecules tested on PMEL17 (assay: Cross-reactivity (cross-specificity profile) of anti-PMEL17 IgGs in dose response FACS). Conditions: h human, c cyno, r rat, m mouse.
Format: binding
Parameters: key: h/c/r/m: human/cyno/rat/mouse; h/c/r: human/cyno/rat; h/c/(m): human/cyno/mouse; h/c: human/cyno
Method: (§3) The cross-specificity of the IgGs was evaluated in does response FACS on G-361 (human melanoma), HKB11-cyno-PMEL17, HKB11-rat PMEL17 and B16-F10 (mouse PMEL17 expressing melanoma) (Table 3). Testing on G-361 was performed using a detection antibody labelled to PE. In contrast, an Alexa-Fluor labelled detection antibody had to be used for testing the candidates on the other cell lines so as to reach detectable signals.
IgGs were classified into several epitope groups according to their cross-specificity profiles.

Molecule	Cross spe profile (based on C14 detection ab)
B1	h/c/r/m
B2	h/c/r/m
B3	h/c/(m)
B4	h/c/r/m
B5	h/c/r
B6	h/c/r/m
B7	h/c/(m)

What follows are molecules tested against T1, human PMEL17 (Homo sapiens, UniProt P40967) (assay: Apparent affinity by FACS titration of IgGs on G-361 melanoma cell line). Conditions: G-361, Alexa Fluor-labelled detection antibody; read-out: FACS EC50 (nM) G-361 (Alexa Fluor).
T1 construct: G-361 melanoma cell line expresses human PMEL17 at a lower level compared to the HKB11-human PMEL17 overexpressing cell line; endogenous in cells; host or cells: G-361 (human melanoma)
T1 sequence (P40967 25-661): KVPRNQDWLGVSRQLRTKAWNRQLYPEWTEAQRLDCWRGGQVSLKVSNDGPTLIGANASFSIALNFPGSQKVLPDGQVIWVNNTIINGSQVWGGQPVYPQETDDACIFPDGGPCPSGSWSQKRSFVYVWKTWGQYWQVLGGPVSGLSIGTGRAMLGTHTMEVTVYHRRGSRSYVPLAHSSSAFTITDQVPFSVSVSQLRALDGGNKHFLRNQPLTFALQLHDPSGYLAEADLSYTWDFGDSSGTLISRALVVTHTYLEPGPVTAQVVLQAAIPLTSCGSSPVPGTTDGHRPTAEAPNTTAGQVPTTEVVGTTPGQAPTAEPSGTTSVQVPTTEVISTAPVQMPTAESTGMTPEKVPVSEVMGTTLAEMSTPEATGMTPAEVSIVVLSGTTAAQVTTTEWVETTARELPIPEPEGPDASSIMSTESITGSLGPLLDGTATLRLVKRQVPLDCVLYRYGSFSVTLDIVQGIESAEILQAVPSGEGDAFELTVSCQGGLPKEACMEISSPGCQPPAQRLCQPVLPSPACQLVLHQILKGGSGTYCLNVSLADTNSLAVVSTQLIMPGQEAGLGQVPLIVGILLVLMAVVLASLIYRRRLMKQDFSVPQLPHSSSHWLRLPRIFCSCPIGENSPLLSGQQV
Format: binding
Method: as §1
The cross-specificity of the IgGs was evaluated in does response FACS on G-361 (human melanoma), HKB11-cyno-PMEL17, HKB11-rat PMEL17 and B16-F10 (mouse PMEL17 expressing melanoma) (Table 3). […]

Molecule	EC50 [nM]
B1	1.3
B3	10
B5	1.7
B7	3.2

Same assay, conditions: G-361, PE-labelled detection antibody; read-out: FACS EC50 (nM) G-361 (PE)

Molecule	EC50 [nM]
B2	1.6
B6	0.5

What follows are molecules tested against T2, mouse PMEL17 (Mus musculus, UniProt Q60696) (assay: Apparent affinity by FACS titration of IgGs on B16-F10 melanoma cells). Conditions: Alexa Fluor.
T2 construct: B16-F10 (mouse PMEL17 expressing melanoma); endogenous in cells; host or cells: B16-F10 (mouse melanoma)
T2 sequence (Q60696 24-626): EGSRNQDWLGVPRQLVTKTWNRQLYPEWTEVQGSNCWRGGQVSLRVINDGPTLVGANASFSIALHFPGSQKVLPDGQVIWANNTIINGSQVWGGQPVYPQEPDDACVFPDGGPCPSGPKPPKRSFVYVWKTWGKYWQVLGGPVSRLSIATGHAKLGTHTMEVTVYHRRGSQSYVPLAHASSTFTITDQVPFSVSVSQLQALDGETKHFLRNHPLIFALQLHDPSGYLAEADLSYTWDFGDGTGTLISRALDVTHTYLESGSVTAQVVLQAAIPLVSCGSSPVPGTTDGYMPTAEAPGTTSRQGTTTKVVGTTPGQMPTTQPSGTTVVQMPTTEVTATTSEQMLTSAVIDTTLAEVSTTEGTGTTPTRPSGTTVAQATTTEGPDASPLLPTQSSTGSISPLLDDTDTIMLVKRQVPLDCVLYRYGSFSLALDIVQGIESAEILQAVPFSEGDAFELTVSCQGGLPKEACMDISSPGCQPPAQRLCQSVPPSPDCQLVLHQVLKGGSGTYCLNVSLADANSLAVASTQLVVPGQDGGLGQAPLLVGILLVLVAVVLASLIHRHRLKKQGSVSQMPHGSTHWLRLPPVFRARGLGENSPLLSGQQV
Format: binding
Method: as §1, §3

Molecule	EC50 [nM]
B1	> 100
B5	> 100

Reference: US11779649B2, “Antibodies to PMEL17 and conjugates thereof” (Novartis AG, priority 2018, dated 2023)
